From US20260242852

Molecular target: AsCas12a (Acidaminococcus sp.?) (UniProt U2UMQ6)
Assay: BLI
Conditions: ΨDNA guide binding without target; NEB 2.1, 0.05% Triton X

AGCACCCAGTCCGCCCTGAGTAGATGTGAATCATCTTTAAT [AsCas12a GFP ΨDNA 3'-biotin]
Kd: 24.5 nM
